Experimental data from paper PMC11218660, “Functional dissection of human cardiac enhancers and noncoding de novo variants in congenital heart disease”.

T1: SRF (human, UniProt P11831 1-508)
T1 sequence: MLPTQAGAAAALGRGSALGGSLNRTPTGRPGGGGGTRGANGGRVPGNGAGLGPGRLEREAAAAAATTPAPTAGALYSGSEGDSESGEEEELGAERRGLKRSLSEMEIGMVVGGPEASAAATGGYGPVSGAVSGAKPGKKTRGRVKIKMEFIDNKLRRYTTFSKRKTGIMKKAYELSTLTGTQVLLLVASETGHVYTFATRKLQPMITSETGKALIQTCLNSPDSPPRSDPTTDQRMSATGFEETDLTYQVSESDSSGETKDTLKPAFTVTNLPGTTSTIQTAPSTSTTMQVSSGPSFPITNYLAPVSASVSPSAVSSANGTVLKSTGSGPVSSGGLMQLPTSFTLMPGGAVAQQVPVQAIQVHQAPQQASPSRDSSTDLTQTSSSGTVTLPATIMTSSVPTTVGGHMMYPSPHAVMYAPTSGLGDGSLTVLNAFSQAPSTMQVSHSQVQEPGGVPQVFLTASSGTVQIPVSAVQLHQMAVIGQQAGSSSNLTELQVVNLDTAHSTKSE


Target: T1, SRF
Experiment: EMSA; EMSA: 150 mM KCl, 0.1 mM DTT, 0.1 mM EDTA, 10 mM Tris pH 7.4; 500-800 fmol probe, 0.1-2.0 ug protein in 15-20 ul; room temperature 20 min; 6% native PAGE, SYBR
Details: protein: recombinant; chain copies: 2; blunt

| Binder | binding result |
| --- | --- |
| ADAMTS6-CRE ALT (dsDNA) DNA 1: AATGCATCTGCTTGCTTCATTTGGCAGATTCCTCAAGAGT DNA 2: ACTCTTGAGGAATCTGCCAAATGAAGCAAGCAGATGCATT | binds |
| GLB1L3-CRE REF (dsDNA) DNA 1: GAGGGAGGGGAGCGATCTCTCCTTTCTTGGAGAAAATAGTATCGC DNA 2: GCGATACTATTTTCTCCAAGAAAGGAGAGATCGCTCCCCTCCCTC | binds |
